Experimental data published in paper PMC6344521.

B1: nucleoprotein (NP) of influenza A, prototype human isolate A/Wilson-Smith/1933, P15682 1-498 (natural protein)
chain: MATKGTKRSYEQMETDGERQNATEIRASVGKMIGGIGRFYIQMCTELKLSDYEGRLIQNSLTIERMVLSAFDERRNKYLEEHPSAGKDPKKTGGPIYRRVDGKWMRELILYDKEEIRRIWRQANNGDDATAGLTHMMIWHSNLNDATYQRTRALVRTGMDPRMCSLMQGSTLPRRSGAAGAAVKGVGTMVMELIRMIKRGINDRNFWRGENGRRTRIAYERMCNILKGKFQTAAQRAMVDQVRESRNPGNAEFEDLIFLARSALILRGSVAHKSCLPACVYGPAVASGYDFEREGYSLVGIDPFRLLQNSQVYSLIRPNENPAHKSQLVWMACHSAAFEDLRVSSFIRGTKVVPRGKLSTRGVQIASNENMETMESSTLELRSRYWAIRTRSGGNTNQQRASSGQISIQPTFSVQRNLPFDRPTIMAAFTGNTEGRTSDMRTEIIRLMESARPEDVSFQGRGVFELSDEKAASPIVPSFDMSNEGSYFFGDNAEEYDN

Experiments:
[1] = molecular target: OVX836, NP of influenza A (A/Wilson-Smith/1933) fused through its C-terminus to the oligomerization domain OVX313 (influenza A virus (strain A/Wilson-Smith/1933)); assay: reversed-phase chromatography (RP-UHPLC)
[2] = molecular target: OVX836, NP of influenza A (A/Wilson-Smith/1933) fused through its C-terminus to the oligomerization domain OVX313 (influenza A virus (strain A/Wilson-Smith/1933)); assay: SEC
[3] = molecular target: T1, nucleoprotein (NP) of influenza A, prototype human isolate A/Wilson-Smith/1933 (influenza A virus (strain A/Wilson-Smith/1933)), P15682; assay: SEC; conditions: remark: other sources report otherwise
T1 chain: B1 chain

Molecule	stoichiometry N [1]	stoichiometry N [2]	stoichiometry N [3]
OVX836, NP of influenza A (A/Wilson-Smith/1933) fused through its C-terminus to the oligomerization domain OVX313	7	7	
B1			3
